Results on four molecules are retold here after PMC4041461, “Identification and characterization of RNA guanine-quadruplex binding proteins”.

One series deals with Δnucleolin (Homo sapiens, UniProt P19338 284-710, del1-283). As to the kind of experiment: SPR; SPR: 25 °C, 1:10 mixture of binding buffer (10 mM Tris-HCl pH 7.5, 150 mM KCl) and HBS-EP (10 mM HEPES pH 7.4, 150 mM NaCl, 3 mM EDTA, 0.005% P20), protein immobilized; pull-down: RNA on streptavidin beads blocked in 10 mM Tris-HCl pH 7.5, 100 mM KCl, 0.1 mM EDTA, 1 mM DTT, 0.01% Triton X-100, BSA, tRNA; extract 1 h at 30 °C, elution 400-2600 mM KCl. The conditions noted are these: protein: recombinant, tags: N-terminal His-tag (pET28a), label: biotin. In general terms: Surface plasmon resonance follows binding to a sensor surface in real time, without labels.

A further series has as its target U2AF65 (Homo sapiens, UniProt P26368 1-475). The series is described as above. The conditions noted are these: protein: recombinant, tags: N-terminal His-tag (pET28a), label: biotin.
The target in another series is T1, EFHD2 (Homo sapiens, UniProt Q96C19 1-240).
T1 sequence: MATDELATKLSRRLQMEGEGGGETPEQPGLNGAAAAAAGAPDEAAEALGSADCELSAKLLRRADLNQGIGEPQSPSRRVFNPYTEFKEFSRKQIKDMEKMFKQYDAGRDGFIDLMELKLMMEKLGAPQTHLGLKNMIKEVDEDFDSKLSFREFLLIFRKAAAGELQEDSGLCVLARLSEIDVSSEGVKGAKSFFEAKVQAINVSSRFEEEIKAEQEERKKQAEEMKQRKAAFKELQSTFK
Nature of the series: SPR; 100 nM RNA; SPR: 25 °C, 1:10 mixture of binding buffer (10 mM Tris-HCl pH 7.5, 150 mM KCl) and HBS-EP (10 mM HEPES pH 7.4, 150 mM NaCl, 3 mM EDTA, 0.005% P20), protein immobilized; pull-down: RNA on streptavidin beads blocked in 10 mM Tris-HCl pH 7.5, 100 mM KCl, 0.1 mM EDTA, 1 mM DTT, 0.01% Triton X-100, BSA, tRNA; extract 1 h at 30 °C, elution 400-2600 mM KCl. As to conditions: protein: recombinant; tags: N-terminal His-tag (pET28a); label: biotin; parallel G4, several variants possible.

The next series addresses SRSF1 (Homo sapiens, UniProt Q07955 1-248). The series is described as above. The conditions noted are these: protein: recombinant; tags: N-terminal His-tag (pET28a); label: biotin; parallel G4, several variants possible.
Setting [1] is: parallel G4, several variants possible.

Chain of Δnucleolin (P19338 284-710, stated change not applied): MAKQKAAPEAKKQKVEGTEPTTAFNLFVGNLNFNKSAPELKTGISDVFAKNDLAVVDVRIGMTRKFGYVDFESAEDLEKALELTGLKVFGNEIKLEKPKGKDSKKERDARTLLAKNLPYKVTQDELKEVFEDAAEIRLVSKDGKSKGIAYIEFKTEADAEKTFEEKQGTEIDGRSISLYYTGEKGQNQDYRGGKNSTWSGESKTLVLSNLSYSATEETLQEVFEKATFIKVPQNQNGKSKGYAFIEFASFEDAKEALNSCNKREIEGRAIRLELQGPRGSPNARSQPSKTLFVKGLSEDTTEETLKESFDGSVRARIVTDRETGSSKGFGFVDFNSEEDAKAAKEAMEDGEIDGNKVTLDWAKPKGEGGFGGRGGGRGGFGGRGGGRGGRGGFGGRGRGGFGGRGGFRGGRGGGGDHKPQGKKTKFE
Chain of U2AF65 (P26368 whole entry, one chain of several): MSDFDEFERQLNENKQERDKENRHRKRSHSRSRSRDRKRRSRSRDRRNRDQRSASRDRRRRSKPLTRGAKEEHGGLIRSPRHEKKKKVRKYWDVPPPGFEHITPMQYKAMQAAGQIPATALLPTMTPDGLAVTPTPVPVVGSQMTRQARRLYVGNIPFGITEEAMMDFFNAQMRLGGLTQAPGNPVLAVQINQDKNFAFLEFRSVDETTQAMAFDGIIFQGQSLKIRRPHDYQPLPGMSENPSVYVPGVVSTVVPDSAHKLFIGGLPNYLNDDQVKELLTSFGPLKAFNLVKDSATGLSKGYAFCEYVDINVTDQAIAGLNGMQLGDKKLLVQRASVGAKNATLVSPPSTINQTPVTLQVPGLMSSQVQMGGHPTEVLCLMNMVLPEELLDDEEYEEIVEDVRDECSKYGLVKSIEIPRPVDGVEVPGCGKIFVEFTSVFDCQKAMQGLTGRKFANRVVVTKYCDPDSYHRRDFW
Chain of SRSF1 (Q07955 whole entry): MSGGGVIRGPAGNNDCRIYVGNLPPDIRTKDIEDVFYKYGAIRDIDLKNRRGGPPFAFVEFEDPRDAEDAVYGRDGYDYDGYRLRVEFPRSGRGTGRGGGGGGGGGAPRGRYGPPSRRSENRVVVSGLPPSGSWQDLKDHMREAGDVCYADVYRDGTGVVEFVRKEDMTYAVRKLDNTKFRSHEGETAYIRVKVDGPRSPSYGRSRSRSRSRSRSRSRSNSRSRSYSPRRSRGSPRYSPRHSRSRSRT

A word on the Kd: it is the concentration at which binding is half-saturated. Take AGCCGGGGGCUGGGCGGGGACCGGGCUUGU (structured_RNA, 3' biotin) [ARPC2 GQ]: the values for the Kd with Δnucleolin (setting [1]) and with U2AF65 (setting [1]) were 0.6 nM and 1 nM, respectively. Further, the binding result with EFHD2 and in the series with SRSF1 was “binds” in each case.
On to AACGAGAGAGAGAGAGAGAGAGAGAGA (ssRNA, 3' biotin) [MMP16 mut], for which the Kd with Δnucleolin (no G4) turned out to be 0.6 nM.
For AACGAGGGAGGGAGGGAGAGGGAGAGA (structured_RNA, 3' biotin) [MMP16 GQ], the Kd with Δnucleolin (parallel G4 (CD, UV melting)) amounted to 2 nM; with U2AF65 (parallel G4 (CD, UV melting)) it was 5 nM.
Regarding AGCCGUAGACUGAGCGAAGACCGAGCUUGU (ssRNA, 3' biotin) [ARPC2 mut], in the series with Δnucleolin (no G4), the equilibrium dissociation constant (Kd) came to 83 nM.
